Patent US20240343771A1

What was measured:
[1] = molecular target: IL-12 receptor (human IL-12Rb1 and IL-12Rb2 on IL-12 bioassay cells) (human) (UniProt P42701)
[2] = molecular target: IL-12 receptor (human IL-12Rb1 and IL-12Rb2 on IL-12 bioassay cells) (human) (UniProt P42701); remark: listed apart in the source
[3] = molecular target: IL-12 receptor (human IL-12Rb1 and IL-12Rb2 on IL-12 bioassay cells) (human) (UniProt P42701); remark: listed apart in the source
[4] = molecular target: IL-12 receptor (human IL-12Rb1 and IL-12Rb2 on IL-12 bioassay cells) (human) (UniProt P42701); remark: listed apart in the source

Chain of IL-12 receptor (human IL-12Rb1 and IL-12Rb2 on IL-12 bioassay cells) (human) (Q99665 24-862, chain 2 of 2, other chains not shown): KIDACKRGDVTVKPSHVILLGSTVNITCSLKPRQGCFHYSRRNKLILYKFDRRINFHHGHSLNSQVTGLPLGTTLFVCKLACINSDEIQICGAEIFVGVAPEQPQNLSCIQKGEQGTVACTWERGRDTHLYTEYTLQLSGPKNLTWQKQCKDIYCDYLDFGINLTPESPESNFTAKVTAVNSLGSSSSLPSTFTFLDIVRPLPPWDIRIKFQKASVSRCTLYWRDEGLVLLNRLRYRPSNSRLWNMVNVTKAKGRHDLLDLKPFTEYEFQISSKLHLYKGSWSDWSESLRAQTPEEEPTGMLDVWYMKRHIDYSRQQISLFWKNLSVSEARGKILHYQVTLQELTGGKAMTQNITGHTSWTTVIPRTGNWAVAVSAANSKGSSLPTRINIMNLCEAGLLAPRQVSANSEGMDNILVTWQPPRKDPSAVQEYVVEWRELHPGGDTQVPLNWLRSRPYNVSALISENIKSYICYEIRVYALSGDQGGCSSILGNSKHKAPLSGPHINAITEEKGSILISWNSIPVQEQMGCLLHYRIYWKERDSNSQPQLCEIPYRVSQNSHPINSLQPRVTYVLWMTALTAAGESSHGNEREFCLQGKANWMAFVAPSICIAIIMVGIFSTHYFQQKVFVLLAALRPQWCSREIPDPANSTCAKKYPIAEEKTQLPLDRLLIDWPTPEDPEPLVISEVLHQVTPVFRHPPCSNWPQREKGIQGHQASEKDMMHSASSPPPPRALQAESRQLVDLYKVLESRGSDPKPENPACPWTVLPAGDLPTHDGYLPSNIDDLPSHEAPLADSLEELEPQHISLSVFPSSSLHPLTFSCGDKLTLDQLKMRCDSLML
Chain of hIL12 + MTSP1 (P29459 23-219): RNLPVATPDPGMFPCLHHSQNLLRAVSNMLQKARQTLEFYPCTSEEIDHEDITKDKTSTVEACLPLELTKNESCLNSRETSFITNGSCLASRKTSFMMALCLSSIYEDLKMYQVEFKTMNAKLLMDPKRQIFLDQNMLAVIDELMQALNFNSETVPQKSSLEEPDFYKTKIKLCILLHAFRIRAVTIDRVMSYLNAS
Chain of hIL12 + MTSP1 (P29460 23-328): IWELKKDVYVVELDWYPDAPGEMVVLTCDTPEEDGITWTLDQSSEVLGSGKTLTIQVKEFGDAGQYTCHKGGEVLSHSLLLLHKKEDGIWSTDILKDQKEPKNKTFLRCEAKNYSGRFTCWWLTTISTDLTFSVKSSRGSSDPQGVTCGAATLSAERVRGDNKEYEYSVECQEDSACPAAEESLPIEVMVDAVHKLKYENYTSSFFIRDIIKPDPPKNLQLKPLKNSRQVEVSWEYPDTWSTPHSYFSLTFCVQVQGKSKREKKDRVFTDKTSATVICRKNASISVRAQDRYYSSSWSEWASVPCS

EC50 (read off the curve) (luciferase activity, AU; the assay is not described for this figure) [1] | EC50 (read off the curve) (luciferase reporter in IL-12 bioassay cells expressing human IL-12Rb1, IL-12Rb2 and STAT4) [all three graphs] [2] | EC50 (read off the curve) (luciferase reporter in IL-12 bioassay cells expressing human IL-12Rb1, IL-12Rb2 and STAT4) [left graph] [3] | EC50 (read off the curve) (luciferase reporter in IL-12 bioassay cells expressing human IL-12Rb1, IL-12Rb2 and STAT4) [4] | Substance
300 pM | – | – | – | hIL12 + MTSP1 (from UniProt P29459;P29460) (ligand)
– | 200 pM | 100 pM | 200 pM | hIL12_His tag (ligand)
– | 200 pM | – | 200 pM | hIL12_His tag + MTSP1 (ligand)
